Source: patent publication US20250382384A1

Biological target: full-length cynomolgus MUC1 on stably transfected cells (cynomolgus)
Assay: FACS on HEK293/cyno MUC1

Sequence of full-length cynomolgus MUC1 on stably transfected cells (cynomolgus) (chain, as listed by the source limits assumed, form in doubt): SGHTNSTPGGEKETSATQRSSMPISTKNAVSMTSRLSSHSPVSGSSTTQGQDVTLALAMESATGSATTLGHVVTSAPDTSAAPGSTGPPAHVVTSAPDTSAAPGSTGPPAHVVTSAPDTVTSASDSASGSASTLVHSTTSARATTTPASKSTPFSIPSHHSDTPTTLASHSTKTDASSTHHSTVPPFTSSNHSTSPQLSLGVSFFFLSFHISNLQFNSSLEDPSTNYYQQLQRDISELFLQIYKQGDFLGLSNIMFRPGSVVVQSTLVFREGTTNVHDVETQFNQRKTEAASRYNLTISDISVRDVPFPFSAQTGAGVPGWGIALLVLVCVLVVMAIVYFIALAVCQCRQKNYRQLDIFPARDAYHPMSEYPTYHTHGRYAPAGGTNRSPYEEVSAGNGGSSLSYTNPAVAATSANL

| EC50 | Binder |
| --- | --- |
| 7.55 nM | chBG138P (antibody, V domains shown) VH: QVQLLQSGAELARPGASVKMSCKASGYTFTTYTMHWIKQRPGQGLEWIGYINPGSDYTHYNQKFKDKATLTADKSSSTAYMHLYSLTSEDSAVYYCARQGNYAAYYFDYWGQGTTLTVSS VL: DIQMTQSPASLSASVGETVTITCRASGNIHNFLVWYQQKQGKSPQLLVYNAKTLTDGVPSRFSGSGSGTQYSLKIKSLQPEDFGTYYCQNFWNVPFTFGSGTKLEIK |
| 41.8 nM | chBG346P (antibody, V domains shown) VH: EVQLQQSGAELVKPGASVKISCKASGYTFTNYWMNWVRQRPGQGLEWIGEIDPSDSYTNNNQKFKDKATLTVDKSSSTAYMQLSSLTSEDSAVYYCARGRRTGFAYWGQGTLVTVSS VL: DIQMTQSPASLSVSVGETVTITCRASENIYSNLAWYQKKQGKSPQLLVYAATNLADGVPSRFSGSGSGTQYSLKINSLQSEDFGNYYCQHFWGTPYTFGGGTKLEIK |
| 12.7 nM | chBG219P (antibody, V domains shown) VH: EVQLVESGGGLVKPGGSLKLSCAASGFTFNDYIMSWVRQTPEKRLEWVATVSSGGDNTYYPDSVKGRFTISRDNAKNNLYLQMSSLRSEDTALYYCTRYGGLGAMDYWGQGTSVTVSS VL: DIVMTQSPASLSASVGETVTITCRASGNIHNYLTWYQQKQGKSPQLLVYNAKTLADGVPSRFSGSGSGPQYSLKINSLQPEDFGSYYCQHFWSVPYTFGGGTRLEIK |

Biological target: full-length cynomolgus MUC1 on stably transfected cells (cynomolgus)
Assay: FACS (iQue3) on HEK293-cynoMUC1 cells

| EC50 (read off the curve) | Binder |
| --- | --- |
| 4 nM | chBG138P (antibody, V domains shown) VH: QVQLLQSGAELARPGASVKMSCKASGYTFTTYTMHWIKQRPGQGLEWIGYINPGSDYTHYNQKFKDKATLTADKSSSTAYMHLYSLTSEDSAVYYCARQGNYAAYYFDYWGQGTTLTVSS VL: DIQMTQSPASLSASVGETVTITCRASGNIHNFLVWYQQKQGKSPQLLVYNAKTLTDGVPSRFSGSGSGTQYSLKIKSLQPEDFGTYYCQNFWNVPFTFGSGTKLEIK |

Biological target: cynomolgus MUC1 SEA domain protein (cynomolgus)
Assay: SPR (Biacore 2000), antibody captured, cynoMUC1 SEA analyte, 1:1 binding

| Binder | Kd |
| --- | --- |
| BG138P-Bz11 (antibody, human IgG1, V domains shown) VH: QVQLVQSGAEVKKPGASVKVSCKASGYTFTTYTMHWIKQAPGQGLEWIGYINPGSDYTHYNQKFKDKATLTADKSASTAYMELYSLRSEDTAVYYCARQGNYAAYYFDYWGQGTLVTVSS VL: DIQMTQSPSSLSASVGDRVTITCRASGNIHNFLVWYQQKPGKVPKLLVYNAKTLTDGVPSRFSGSGSGTQYSLTISSLQPEDVATYYCQNFWNVPFTFGSGTKLEIK | 9.42 nM |
| BG138P-Bz3 (antibody, human IgG1, V domains shown) VH: QVQLVQSGAEVKKPGASVKVSCKASGYTFTTYTMHWIKQAPGQRLEWIGYINPGSDYTHYNQKFKDKATLTADKSASTAYMELYSLRSEDTAVYYCARQGNYAAYYFDYWGQGTLVTVSS VL: DIQMTQSPSSLSASVGDRVTITCRASGNIHNFLVWYQQKPGKSPKLLVYNAKTLTDGVPSRFSGSGSGTQYSLTISSLQPEDVATYYCQNFWNVPFTFGSGTKLEIK | 9.04 nM |
| BG138P-Bz4 (antibody, human IgG1, V domains shown) VH: QVQLVQSGAEVKKPGASVKVSCKASGYTFTTYTMHWIKQAPGQGLEWMGYINPGSDYTHYNQKFKDKATLTADKSASTAYMELYSLRSEDTAVYYCARQGNYAAYYFDYWGQGTLVTVSS VL: DIQMTQSPSSLSASVGDRVTITCRASGNIHNFLVWYQQKPGKSPKLLVYNAKTLTDGVPSRFSGSGSGTQYSLTISSLQPEDVATYYCQNFWNVPFTFGSGTKLEIK | 6.73 nM |
| BG138P-Bz8 (antibody, human IgG1, V domains shown) VH: QVQLVQSGAEVKKPGASVKVSCKASGYTFTTYTMHWIKQAPGQGLEWIGYINPGSDYTHYNQKFKDKATLTRDKSASTAYMELYSLRSEDTAVYYCARQGNYAAYYFDYWGQGTLVTVSS VL: DIQMTQSPSSLSASVGDRVTITCRASGNIHNFLVWYQQKPGKSPKLLVYNAKTLTDGVPSRFSGSGSGTQYSLTISSLQPEDVATYYCQNFWNVPFTFGSGTKLEIK | 13.5 nM |
| BG138P-Bz1 (antibody, human IgG1, V domains shown) VH: QVQLVQSGAEVKKPGASVKVSCKASGYTFTTYTMHWVKQAPGQGLEWIGYINPGSDYTHYNQKFKDKATLTADKSASTAYMELYSLRSEDTAVYYCARQGNYAAYYFDYWGQGTLVTVSS VL: DIQMTQSPSSLSASVGDRVTITCRASGNIHNFLVWYQQKPGKSPKLLVYNAKTLTDGVPSRFSGSGSGTQYSLTISSLQPEDVATYYCQNFWNVPFTFGSGTKLEIK | 7.18 nM |
| BG138P-Bz14 (antibody, human IgG1, V domains shown) VH: QVQLVQSGAEVKKPGASVKVSCKASGYTFTTYTMHWIKQAPGQGLEWIGYINPGSDYTHYNQKFKDKATLTADKSASTAYMELYSLRSEDTAVYYCARQGNYAAYYFDYWGQGTLVTVSS VL: DIQMTQSPSSLSASVGDRVTITCRASGNIHNFLVWYQQKPGKSPKLLVYNAKTLTDGVPSRFSGSGSGTQFSLTISSLQPEDVATYYCQNFWNVPFTFGSGTKLEIK | 24.4 nM |
| BG138P-Bz6 (antibody, human IgG1, V domains shown) VH: QVQLVQSGAEVKKPGASVKVSCKASGYTFTTYTMHWIKQAPGQGLEWIGYINPGSDYTHYNQKFKDKVTLTADKSASTAYMELYSLRSEDTAVYYCARQGNYAAYYFDYWGQGTLVTVSS VL: DIQMTQSPSSLSASVGDRVTITCRASGNIHNFLVWYQQKPGKSPKLLVYNAKTLTDGVPSRFSGSGSGTQYSLTISSLQPEDVATYYCQNFWNVPFTFGSGTKLEIK | 6.79 nM |
| BG138P-Bz2 (antibody, human IgG1, V domains shown) VH: QVQLVQSGAEVKKPGASVKVSCKASGYTFTTYTMHWIRQAPGQGLEWIGYINPGSDYTHYNQKFKDKATLTADKSASTAYMELYSLRSEDTAVYYCARQGNYAAYYFDYWGQGTLVTVSS VL: DIQMTQSPSSLSASVGDRVTITCRASGNIHNFLVWYQQKPGKSPKLLVYNAKTLTDGVPSRFSGSGSGTQYSLTISSLQPEDVATYYCQNFWNVPFTFGSGTKLEIK | 6.96 nM |
| BG138P-Bz9 (antibody, human IgG1, V domains shown) VH: QVQLVQSGAEVKKPGASVKVSCKASGYTFTTYTMHWIKQAPGQGLEWIGYINPGSDYTHYNQKFKDKATLTADTSASTAYMELYSLRSEDTAVYYCARQGNYAAYYFDYWGQGTLVTVSS VL: DIQMTQSPSSLSASVGDRVTITCRASGNIHNFLVWYQQKPGKSPKLLVYNAKTLTDGVPSRFSGSGSGTQYSLTISSLQPEDVATYYCQNFWNVPFTFGSGTKLEIK | 6.81 nM |
| BG138P-Hz0 (antibody, human IgG1, V domains shown) VH: QVQLVQSGAEVKKPGASVKVSCKASGYTFTTYTMHWVRQAPGQRLEWMGYINPGSDYTHYNQKFKDRVTITRDTSASTAYMELSSLRSEDTAVYYCARQGNYAAYYFDYWGQGTLVTVSS VL: DIQMTQSPSSLSASVGDRVTITCRASGNIHNFLVWYQQKPGKVPKLLIYNAKTLTDGVPSRFSGSGSGTDFTLTISSLQPEDVATYYCQNFWNVPFTFGQGTKLEIK | 91.7 nM |

Further lines, results first:

| Kd | Binder |
| --- | --- |
| 4.35 nM | BG138P-Bz7 (antibody, human IgG1, V domains shown) VH: QVQLVQSGAEVKKPGASVKVSCKASGYTFTTYTMHWIKQAPGQGLEWIGYINPGSDYTHYNQKFKDKATITADKSASTAYMELYSLRSEDTAVYYCARQGNYAAYYFDYWGQGTLVTVSS VL: DIQMTQSPSSLSASVGDRVTITCRASGNIHNFLVWYQQKPGKSPKLLVYNAKTLTDGVPSRFSGSGSGTQYSLTISSLQPEDVATYYCQNFWNVPFTFGSGTKLEIK |
| 6.28 nM | BG138P-Bz10 (antibody, human IgG1, V domains shown) VH: QVQLVQSGAEVKKPGASVKVSCKASGYTFTTYTMHWIKQAPGQGLEWIGYINPGSDYTHYNQKFKDKATLTADKSASTAYMELSSLRSEDTAVYYCARQGNYAAYYFDYWGQGTLVTVSS VL: DIQMTQSPSSLSASVGDRVTITCRASGNIHNFLVWYQQKPGKSPKLLVYNAKTLTDGVPSRFSGSGSGTQYSLTISSLQPEDVATYYCQNFWNVPFTFGSGTKLEIK |
| 5.6 nM | BG138P-Bz16 (antibody, human IgG1, V domains shown) VH: QVQLVQSGAEVKKPGASVKVSCKASGYTFTTYTMHWIKQAPGQGLEWIGYINPGSDYTHYNQKFKDKATLTADKSASTAYMELYSLRSEDTAVYYCARQGNYAAYYFDYWGQGTLVTVSS VL: DIQMTQSPSSLSASVGDRVTITCRASGNIHNFLVWYQQKPGKSPKLLVYNAKTLTDGVPSRFSGSGSGTQYSLTISSLQPEDVATYYCQNFWNVPFTFGQGTKLEIK |
| 6.56 nM | BG138P-Bz12 (antibody, human IgG1, V domains shown) VH: QVQLVQSGAEVKKPGASVKVSCKASGYTFTTYTMHWIKQAPGQGLEWIGYINPGSDYTHYNQKFKDKATLTADKSASTAYMELYSLRSEDTAVYYCARQGNYAAYYFDYWGQGTLVTVSS VL: DIQMTQSPSSLSASVGDRVTITCRASGNIHNFLVWYQQKPGKSPKLLIYNAKTLTDGVPSRFSGSGSGTQYSLTISSLQPEDVATYYCQNFWNVPFTFGSGTKLEIK |
| 6.11 nM | BG138P-Bz15 (antibody, human IgG1, V domains shown) VH: QVQLVQSGAEVKKPGASVKVSCKASGYTFTTYTMHWIKQAPGQGLEWIGYINPGSDYTHYNQKFKDKATLTADKSASTAYMELYSLRSEDTAVYYCARQGNYAAYYFDYWGQGTLVTVSS VL: DIQMTQSPSSLSASVGDRVTITCRASGNIHNFLVWYQQKPGKSPKLLVYNAKTLTDGVPSRFSGSGSGTQYTLTISSLQPEDVATYYCQNFWNVPFTFGSGTKLEIK |
| 6.59 nM | BG138P-Bz0 (antibody, human IgG1, V domains shown) VH: QVQLVQSGAEVKKPGASVKVSCKASGYTFTTYTMHWIKQAPGQGLEWIGYINPGSDYTHYNQKFKDKATLTADKSASTAYMELYSLRSEDTAVYYCARQGNYAAYYFDYWGQGTLVTVSS VL: DIQMTQSPSSLSASVGDRVTITCRASGNIHNFLVWYQQKPGKSPKLLVYNAKTLTDGVPSRFSGSGSGTQYSLTISSLQPEDVATYYCQNFWNVPFTFGSGTKLEIK |
| 6.7 nM | BG138P-Bz13 (antibody, human IgG1, V domains shown) VH: QVQLVQSGAEVKKPGASVKVSCKASGYTFTTYTMHWIKQAPGQGLEWIGYINPGSDYTHYNQKFKDKATLTADKSASTAYMELYSLRSEDTAVYYCARQGNYAAYYFDYWGQGTLVTVSS VL: DIQMTQSPSSLSASVGDRVTITCRASGNIHNFLVWYQQKPGKSPKLLVYNAKTLTDGVPSRFSGSGSGTDYSLTISSLQPEDVATYYCQNFWNVPFTFGSGTKLEIK |
| 6.31 nM | BG138P-Bz5 (antibody, human IgG1, V domains shown) VH: QVQLVQSGAEVKKPGASVKVSCKASGYTFTTYTMHWIKQAPGQGLEWIGYINPGSDYTHYNQKFKDRATLTADKSASTAYMELYSLRSEDTAVYYCARQGNYAAYYFDYWGQGTLVTVSS VL: DIQMTQSPSSLSASVGDRVTITCRASGNIHNFLVWYQQKPGKSPKLLVYNAKTLTDGVPSRFSGSGSGTQYSLTISSLQPEDVATYYCQNFWNVPFTFGSGTKLEIK |
